The record followed here is the nanobody polyreactivity screen of Harvey et al. (2022).

The nature of this series: yeast display, Sf9 membrane polyspecificity reagent, FACS + sequencing; frameworks hold sequencing errors. The method, boiled down: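 A synthetic nanobody library was expressed on Saccharomyces cerevisiae BJ5465 by galactose induction for 36–48 hours. The library was stained for 1 hour at 4 °C with 10% biotinylated, detergent-solubilized Sf9 membrane reagent and enriched with streptavidin microbeads before FACS. Low and high (top ~1%) gates were set on anti-HA fluorescence for expression and streptavidin fluorescence for reagent binding, and each polyreactivity label reflects the gate of origin.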
For the sequence “QVQLVESGGGLVQARGSLRLSCAASGSTFDLYAMGWYRQAPGKEREFVAAISSSGGTTYNADSVKGRFTSSRDNAKKTVYLQRKSLKPEDTAVYYCAAVRYYESRGGYDYWGQGTQVTVSS”, the “polyreactivity (PSR sort gate)” value is “low polyreactivity”.
Turning to “QVQLVESGGGLVQARGSLRLSCAASGSTFVTYAMGWYRQAPGKERELVAAITWSGGGTYYADSVKGRFTISRDNAKNTVYLQMNSLKPEDTAVYYCNRPAAVGDEDYWGQGTQVTVSS”, the “polyreactivity (PSR sort gate)” value is “low polyreactivity”.
For the sequence “QVQLVESGGGLVQARGSLRLSCAPSGFIFDVYAMGWYRQAPGKERELVAAISSSGGRTYYADSVKGRFTISRDNAKNTVYLQMNSLKPEDTAVYYCAAKTDSRTKVYTADYWGQGTQVTVSS”, the “polyreactivity (PSR sort gate)” value is listed as “high polyreactivity”.
Take “QVQLVESGGGLVQARGSLRLSCASSGRIFWRYAMRWYSQSPGKERELVAAISRSGGRTYYADSVKGRFTISRDNAKNTVYLQMISLKPEDTAVYYCAAKTGGQPGDYWGQGTQVTVSS”: the “polyreactivity (PSR sort gate)” value was “high polyreactivity”.
With “QVQLVESGGGLVQARGSLRLSCSSSGSIFASYAMGWYRRAPGKERELVAAISRRAVLTYYADSVKGSFTISRDNAKNTVYLQMNSLKPEDTAVYYCNARGYSGYQRYGYNYWGQGTQVTVSS” the entry was “high polyreactivity”; with “QVQLVESGGGLVQARGSRRLTCAASGRTFSYYAMGWYLHEPGKERELVAAITSSGGRTTYADSVKGRFTISRDNAKNTVYLQMNSLKPEDTAVYYCNVVRWTLKYGYWGQGTQVTVSS”, “high polyreactivity”; with “QVQLVESGGGLVQARRSLRLSCAASGSTFVQYAMGWDRQAPGNERELVASISYSTGSSTYYADSVKGRFTISRDNAKTTVYLQMNSLKPEDTAFYECAAGIPKGGWSRPRYYYWGQGTQVTVSS”, “high polyreactivity”.
In the case of “QVQLVESGGGLVQASGSLRLSCAASVRIFFVNAMGWYRQEHGKERELVAAIPSSGGSTYYADSVKGRFTISRDNAKNTVYLQMNSLKPEDTAVYYCNARSWYPYDYWGQGTQVTVSS”, the “polyreactivity (PSR sort gate)” value was “low polyreactivity”.
As for “QVQLVESGGGLVQAVGSIRLSCAASGSIFRKYSIRWNRQAPGKDRELVAAISWSGGGTYYADSVKGRFTISRDNAKNTVYLQMNSLKPEDTAVYYCAADPYWDSKGVYWGQGTQVTVSS”, the “polyreactivity (PSR sort gate)” value is “low polyreactivity”.
Consider “QVQLVESGGGLVQAVGSLRLICDASGSTFYKYSMGWYRQAPGKERELVAAITTSGTGTYYADSVKGRFTISRDNAKNTVYLEMNSLKPEDTGVYYCNARIVYRVGVSRMYYWGQGTQVTVSS”, for which the “polyreactivity (PSR sort gate)” value is given as “high polyreactivity”.
With “QVQLVESGGGLVQAVGSLRLSCAASGFTFERNAMGWYRQAPGKARELVATINGSSDSTYYADSVKGRFTISRDKAKNTVYLQMNSLKPEDTAVYYCNADSITEGNSRYSHFDYWGQGTQVTVSS” the entry was “low polyreactivity”.
Under “QVQLVESGGGLVQAVGSLRLSCAASGFTFGEYDMGSYRHAPGKERELVAAIDSGGSTYYADSVKRRFTISRDNAKNTVYLQMNSLKPEDTALYYCNADSTYDYYELDYDHWGQGTQVTVSS” stands “low polyreactivity”; under “QVQLVESGGGLVQAVGSLRLSCAASGFTFTNYAMGWSRQAPVKEREFVAAISGTGGSTYYADSVKGRFTISRDNAYNTEYLQMNSLKPEDTAVYYCARRRTYPPGRYYYLGQGTQVTVSS”, “high polyreactivity”.
With “QVQLVESGGGLVQAVGSLRLSCAASGIIFRNYAMGWYRQAPGKEREWVAAISRSGGSTYYADSVKGRFTISRDNAKNTCYLQMNSLKPEDTAVYYCNAAYWAYNGFSYLMDYWGQGTQVTVSS” the entry was “low polyreactivity”; with “QVQLVESGGGLVQAVGSLRLSCAASGRIFRHNAMGWYRQAPGKEWELVAAISGGGTTYYADSVKGRFTISRDNAKNTVYLQMNSLKPEDTAVYYCAARRRGSVGVGYAYAYYYWGQGTQVTVSS”, “high polyreactivity”.
In the case of “QVQLVESGGGLVQAVGSLRLSCAASGRILYWYAMGWYRQAPGKERELVAAINHGDTSTYYADSVKGRFTISRDNAKNTVYLQMNSLIPEDTAVYYCNVRSYVYSRWYQSTWGYYYWGQGTQVTVSS”, the “polyreactivity (PSR sort gate)” value is given as “high polyreactivity”.
Regarding “QVQLVESGGGLVQAVGSLRLSCAASGRTFGTYAMGWYRQAPGKERELVAAISSGGSTYADSVKGRFTISRDNAKNTVYLQMNSLKPEDTAVYYCNNVRRKQSVLTFDYWGQGTQVTVSS”, the “polyreactivity (PSR sort gate)” value is “high polyreactivity”.
Under “QVQLVESGGGLVQAVGSLRLSCAASGSIFRKYVMGWYRQAPGKERELVAVISSGTGTYYADSVKGRFTISRDNAKNSVYLQMNSLKPEDTAVYYCAAKYFGKWYKYYYWGQGTQVTVSS” stands “high polyreactivity”.
As to “QVQLVESGGGLVQAVGSLRLSCAASGSTFDIYAMGWYRQAPGKERELVAAITSGGSTYADSVKGRFTISRDNAKNTVYLQMNSLKPEDTAVYYCNADRWFGNYLHLSFLNDYWGQGNQVTVSS”, the “polyreactivity (PSR sort gate)” value was “low polyreactivity”.
With “QVQLVESGGGLVQAVGSLRLSCAASGSTFRGYTMGWYRQEPGKERELVSAINWSGGDTYYADSVKGRFTISRDNAKNTVYLQMNSLKPEDTAVYYCNTRHTYPQSFILRRDYWGQGTQVTVSS”, the “polyreactivity (PSR sort gate)” value is given as “low polyreactivity”.
Under “QVQLVESGGGLVQAVGSLRLSFAASGFTFWYYPMGWYRQAPGKERELLAAITSSGGSTYYADSEKGRFTISRDYAKITVYLQMNSLKPEDTAVYYCAAGAPYRYYYCGQGTQVTVSS” stands “high polyreactivity”; under “QVQLVESGGGLVQAVGSLSLSCAASGLTLGSYAKGAYRQAPGKERELVAAISRRSGRTYYADSVKGLFTISRDNAKNTVYLQINSLKPEDTAGFYCNRGYTAQVYTEFDYWGQGTQVTVSS”, “low polyreactivity”.
With “QVQLVESGGGLVQEGGSLRISCAASGRIFYYYVMGGYRQAPGKERELVAGITSRGRTYYADSVKGRFTISRDNAKNTVYLQMNSLKPEVTAVYDCNKVGATWRQWFGYWGQGTQVTVSS” the entry was “high polyreactivity”; with “QVQLVESGGGLVQEGGSLRLICAASGSILGSNAMGWYRQAPGKEREFVAAITWTGGSTYYADSVKGRFTISRDNAKNTVYLQMNSLKREDTAVYYCAKDVKYVKMDYWGQGTQVTVSS”, “low polyreactivity”.
With “QVQLVESGGGLVQEGGSLRLSCAASGFIFDGNAMGWYRQAPGKERELVAAMSWDGGTYYADSVKGRFTISRDNAKNTVYLQMNSLKPEDTAVYYCAAEQTQLYSFGWDEYWGQGTQVTVSS” the entry was “low polyreactivity”; with “QVQLVESGGGLVQEGGSLRLSCAASGFIFSSNDMGWYRQPPGKERELVAVISRSGGRTYYADSVKGRFTISRDNAKNTVYLQMNSLKPEDTSVYYCNKKDRLGHSGRDYWGQGTQVTVSS”, “high polyreactivity”; with “QVQLVESGGGLVQEGGSLRLSCAASGFIVSYYTMGWYRQAPGKERELVAAIRSSGGSTYADSVKGRFTISRDNAKNTVYLQMNSLKPEDTAVYYCAAVQTWRWVYARDYWGQGTQVTVSS”, “high polyreactivity”.
“QVQLVESGGGLVQEGGSLRLSCAASGFTIRTYAMGWYRQAPGKERELVAAINTGGGTNYADSVKGRFTISRDNAKNTVYLQMNSLKPEDTAVYYCNSVHYYYYYWYSLYDSWGKGTQVTVSS”: the “polyreactivity (PSR sort gate)” value is reported as “high polyreactivity”.
Take “QVQLVESGGGLVQEGGSLRLSCAASGGIFGWYAMGWYRQAPGKERELVATITWRGGRTYYADSVKGRFTISRDNEKNTVYLQMNSLKPEDTAVYYCNAEWLWYDAGYRYTIRDSWGQGTQVTVSS”: the “polyreactivity (PSR sort gate)” value is reported as “low polyreactivity”.
As for “QVQLVESGGGLVQEGGSLRLSCAASGGTFYNYAMGWYRQAPGKERELVAAITYSGGITYYADSVKGRFTISRDNAKNTVYLQMNRLKPEDTAVYYCAADGYGNYDQYGYWGQGTQVTVSS”, the “polyreactivity (PSR sort gate)” value is “low polyreactivity”.
Take “QVQLVESGGGLVQEGGSLRLSCAASGIIFGYNAMGWYRQAPGKERELVAAISRRGGTTYYADSVKGRLTISRDNSKNTVYLQMNSLKPEDTAVYYCAAQWSPTEHEYNYSGQGTQVTVSS”: the “polyreactivity (PSR sort gate)” value is reported as “low polyreactivity”.
Consider “QVQLVESGGGLVQEGGSLRLSCAASGIIFYYNAMGWYRQAPGKERELVARITWRAGSTYYADSVKGRFTISRDNAKNTVYLQMNSLKPEDTAVYYCNADHDGLGYYYWGQGTQVTVSS”, for which the “polyreactivity (PSR sort gate)” value is recorded as “high polyreactivity”.
Take “QVQLVESGGGLVQEGGSLRLSCAASGITFLQYAMGWYRQAPGKERELVAVISRGSRTYYADSVKGRFTISRDNAKNTVYLQMNCLQPDDTAVYYCAAVRGLALGYDYWGQGTQVTVSS”: the “polyreactivity (PSR sort gate)” value is given as “high polyreactivity”.
With “QVQLVESGGGLVQEGGSLRLSCAASGLICQHNARVWSRHAPGKERELVAAISRSAGSSYYADSEKGRFTISRDNAKNTVYLQMNCLKPEDTAVFYCAKRPTPTTKDDTVRYGYWGQGSQVTVSS” the entry was “low polyreactivity”.
For “QVQLVESGGGLVQEGGSLRLSCAASGLIFYDNMGWYRQAPGKERELVAAISSSGGSTSYADSVKGRFTISRDNAKNTVYLQMNSLKPEDTAVYYCAADSYPAYLGFVGFDYWGQGTQVTVSS”, the “polyreactivity (PSR sort gate)” value is “low polyreactivity”.
With “QVQLVESGGGLVQEGGSLRLSCAASGNTLRVYAMGRYRQAPGTERELVAAISSSGGSTYYADSVKGRFTISRDNAKNTVYLQMYSLKPEDTAVYYCAKDNGPWFAYDYWGQGTQVTVSS” the entry was “low polyreactivity”; with “QVQLVESGGGLVQEGGSLRLSCAASGRIFATYVMGWYRQAPGKERELVAAISRRGSSTYYADSVKGRFTISRDNAKNTVYLQMNSLKPEDTAVYYCAAVHKVGWSRHYDYWGLGTQVTVSS”, “high polyreactivity”; with “QVQLVESGGGLVQEGGSLRLSCAASGRIFTPYAMGWYRQAPGKERELVAVIRDGSTYYADSVKGRFTISRDNAKNTVYLQMNSLKPEDTAVYYCRYDIWVWWSGAYDYWGQGTQVTVSS”, “low polyreactivity”.
Under “QVQLVESGGGLVQEGGSLRLSCAASGRLFGTYTMGWYRQAPGKERELVAAISWSGGNTYYADSVKGRFTISRDNAKNTVYLQMNSLKPEDTAVYYCNALYYRPPKWYGYWGQGTQVTVSS” stands “high polyreactivity”; under “QVQLVESGGGLVQEGGSLRLSCAASGRTFAHYAMGWYKQAPGKERELVAAISWSGGSTYYADSVKGRFTISRDNPKNTVYLQMNILKPEDTGVYYCNTLGGTEYGYWGPGTQVTVSS”, “high polyreactivity”; under “QVQLVESGGGLVQEGGSLRLSCAASGRTFGVYAMGWYRQAPGKESTYYADSVKGRFTISRDNAKNTVYLQMNSQKQEDTAVYYCAADEWYYIDPSDDYWGQGSQVTVSS”, “low polyreactivity”.
